{
  "source": "paper PMC7021693",
  "key": {"[1]": {"biological_target": "ziv-aflibercept (Zaltrap, 25 mg/mL) (human)", "test": "SEC; as a9; sample: ziv-AFL 25 mg/mL, light irradiation (250 W/m^2) for 12 h"}, "[2]": {"biological_target": "ziv-aflibercept (Zaltrap, 25 mg/mL) (human)", "test": "SEC; as a9; sample: ziv-AFL diluted in NaCl 1.5 M"}, "[3]": {"biological_target": "ziv-aflibercept (Zaltrap, 25 mg/mL) (human)", "test": "SEC; as a9; sample: ziv-AFL 25 mg/mL, 60 °C for 1 h"}, "[4]": {"biological_target": "ziv-aflibercept (Zaltrap, 25 mg/mL) (human)", "test": "SEC; as a9; sample: ziv-AFL medicine adjusted to pH 5.2"}, "[5]": {"biological_target": "ziv-aflibercept (Zaltrap, 25 mg/mL) (human)", "test": "SEC; as a9; sample: ziv-AFL diluted in GndHCl 8 M"}, "[6]": {"biological_target": "ziv-aflibercept (Zaltrap, 25 mg/mL) (human)", "test": "SEC; as a9; sample: ziv-AFL 25 mg/mL, 2 freeze-thaw cycles"}, "[7]": {"biological_target": "ziv-aflibercept (Zaltrap, 25 mg/mL) (human)", "test": "SEC; SE-HPLC/DAD, SEC-5 column, 25 °C, 150 mM phosphate pH 7.0, 0.35 mL/min, 1 ul injected; masses estimated from the column calibration; sample: fresh (control) ziv-AFL 25 mg/mL"}, "[8]": {"biological_target": "ziv-aflibercept (Zaltrap, 25 mg/mL) (human)", "test": "SEC; as a9; sample: ziv-AFL 25 mg/mL, light irradiation (250 W/m^2) for 12 h", "remark": "listed apart in the source"}, "[9]": {"biological_target": "ziv-aflibercept (Zaltrap, 25 mg/mL) (human)", "test": "SEC; as a9; sample: ziv-AFL 25 mg/mL, 60 °C for 3 h"}, "[10]": {"biological_target": "VEGF (UniProt P15692)", "test": "ELISA; as a1; sample: ziv-AFL medicine adjusted to pH 7.2 with 1 M NH3"}, "[11]": {"biological_target": "ziv-aflibercept (Zaltrap, 25 mg/mL) (human)", "test": "SEC; as a9; sample: ziv-AFL 25 mg/mL, 60 °C for 2 h"}, "[12]": {"biological_target": "ziv-aflibercept (Zaltrap, 25 mg/mL) (human)", "test": "SEC; as a9; sample: ziv-AFL 25 mg/mL, 1 freeze-thaw cycle"}, "[13]": {"biological_target": "ziv-aflibercept (Zaltrap, 25 mg/mL) (human)", "test": "SEC; as a9; sample: ziv-AFL medicine adjusted to pH 7.2"}, "[14]": {"biological_target": "VEGF (UniProt P15692)", "test": "ELISA; as a1; sample: ziv-AFL medicine adjusted to pH 5.2 with 0.1 M HCl"}, "[15]": {"biological_target": "VEGF-A165 (Homo sapiens) (UniProt P15692)", "sequence (P15692 whole entry)": "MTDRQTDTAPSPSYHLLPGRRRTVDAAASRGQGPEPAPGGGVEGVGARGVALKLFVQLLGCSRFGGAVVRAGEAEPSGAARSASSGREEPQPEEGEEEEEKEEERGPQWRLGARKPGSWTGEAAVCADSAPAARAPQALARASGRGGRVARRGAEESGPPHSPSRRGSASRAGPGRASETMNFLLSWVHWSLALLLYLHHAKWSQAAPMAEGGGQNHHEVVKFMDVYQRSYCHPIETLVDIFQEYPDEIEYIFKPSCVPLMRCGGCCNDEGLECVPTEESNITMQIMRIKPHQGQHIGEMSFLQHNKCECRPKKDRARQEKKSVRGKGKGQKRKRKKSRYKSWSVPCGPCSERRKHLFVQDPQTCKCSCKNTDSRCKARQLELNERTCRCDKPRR", "settings": "cited from earlier work"}, "[16]": {"test": "SEC; as a9; sample: ziv-AFL diluted in NaCl 1.5 M"}, "[17]": {"test": "SEC; as a9; sample: ziv-AFL 25 mg/mL, 60 °C for 1 h"}, "[18]": {"test": "SEC; as a9; sample: ziv-AFL medicine adjusted to pH 5.2"}, "[19]": {"test": "SEC; as a9; sample: ziv-AFL diluted in GndHCl 8 M"}, "[20]": {"test": "SEC; as a9; sample: ziv-AFL 25 mg/mL, 60 °C for 3 h"}, "[21]": {"biological_target": "VEGF-A165 (Homo sapiens) (UniProt P15692)", "settings": "cited from earlier work", "remark": "listed apart in the source"}},
  "note": "Read-outs that look alike come from different tables or passages of the source.",
  "data": [
    {"substance": "ziv-aflibercept (Zaltrap, 25 mg/mL) (Fc fusion)", "values": [
      {"measurement": "abundance of dimer (% of total peak area)", "setting": "[1]", "value": 12.2, "unit": "%"},
      {"measurement": "abundance of dimer (% of total peak area)", "setting": "[2]", "value": 1.4, "unit": "%"},
      {"measurement": "abundance of dimer (% of total peak area)", "setting": "[3]", "value": 8, "unit": "%"},
      {"measurement": "abundance of dimer (% of total peak area)", "setting": "[4]", "value": 2, "unit": "%"},
      {"measurement": "abundance of dimer (% of total peak area)", "setting": "[5]", "value": 19, "unit": "%"},
      {"measurement": "abundance of dimer (% of total peak area)", "setting": "[6]", "value": 2.1, "unit": "%"},
      {"measurement": "abundance of dimer (% of total peak area)", "setting": "[7]", "value": 1.9, "unit": "%"},
      {"measurement": "stoichiometry N", "setting": "[7]", "value": 2},
      {"measurement": "abundance of dimer (% of total peak area)", "setting": "[8]", "value": 12.4, "unit": "%"},
      {"measurement": "abundance of dimer (% of total peak area)", "setting": "[9]", "value": 7.7, "unit": "%"},
      {"measurement": "remaining biological activity (ELISA against the control, test samples at 10 and 100 µg/ml)", "setting": "[10]", "value": 36, "unit": "%"},
      {"measurement": "abundance of dimer (% of total peak area)", "setting": "[11]", "value": 7.8, "unit": "%"},
      {"measurement": "stoichiometry N", "setting": "[11]", "value": 10},
      {"measurement": "abundance of dimer (% of total peak area)", "setting": "[12]", "value": 1.9, "unit": "%"},
      {"measurement": "abundance of dimer (% of total peak area)", "setting": "[13]", "value": 1.8, "unit": "%"},
      {"measurement": "remaining biological activity (ELISA against the control, test samples at 10 and 100 µg/ml)", "setting": "[14]", "value": 25, "unit": "%"}
    ]},
    {"substance": "VEGFR1 (from UniProt P17948)", "values": [
      {"measurement": "Kd", "setting": "[15]", "value": 0.00933, "unit": "nM"}
    ]},
    {"substance": "ziv-aflibercept (Zaltrap, 25 mg/mL)", "values": [
      {"measurement": "abundance of non-natural HMW aggregates (% of total peak area)", "setting": "[16]", "value": 1.1, "unit": "%"},
      {"measurement": "abundance of non-natural HMW aggregates (% of total peak area)", "setting": "[17]", "value": 22.1, "unit": "%"},
      {"measurement": "abundance of non-natural HMW aggregates (% of total peak area)", "setting": "[18]", "value": 0.8, "unit": "%"},
      {"measurement": "abundance of non-natural HMW aggregates (% of total peak area)", "setting": "[19]", "value": "7.2% and a higher order of aggregation at 5.46 min (5.56%)"},
      {"measurement": "abundance of non-natural HMW aggregates (% of total peak area)", "setting": "[20]", "value": 55.2, "unit": "%"}
    ]},
    {"substance": "VEGFR2 (from UniProt P35968)", "values": [
      {"measurement": "Kd", "setting": "[21]", "value": 0.0888, "unit": "nM"}
    ]}
  ]
}
